From patent US10792332B2, “Anti-infective properties of antifreeze protein” (priority 2013, dated 2020)
Where “and” joins values, the source holds several entries; their conditions need not be identical. Identical values can stand only once. Entries after “also recorded” stand apart in the source; their conditions may differ. Ends that are not written are not given here.

Assays:
[1] = Murine subcutaneous catheter implant model; type: in vivo, C57Bl/6 mice; conditions: under the conditions used
Description: FIG. 5A depicts bacterial attachment to intravenous catheters that had been incubated in PBS, GST, GST-IAFGP, P2 and P21c before transferring into S. aureus SA113 suspensions. Bacterial attachment was quantified after sonication by plating serial dilutions. Data were pooled from 3 independent experiments (One-Way-ANOVA; *: p<0.05). FIG. 5B presents bacterial attachment to intravenous catheters that had been incubated in PBS, P1 or sP1 and implanted subcutaneously on the dorsal flanks of C57Bl/6 mice. 72 hrs after catheter inoculation with 5×10^5 CFU S. aureus SA113 the catheters were removed and the attached bacteria were quantified by plating serial dilutions. […]
Seven days after catheter inoculation with S. aureus SA113, the catheters were removed, and the attached bacteria were quantified by plating serial dilutions.
(§1) Cecal ligation and puncture surgery was performed as described^26,41 Mice were anesthesized using isoflurane inhalation and the cecum was exteriorized through a peritoneal midline incision. […] Body surface temperature was measured dorsally using an infrared thermometer. A retro-orbital blood sample was taken daily and the cytokine levels of TNF-α, IL-6, IL12b and MCP-1 were measured using enzyme-linked immunosorbent assay (ELISA) kits (eBiosciences, San Diego, Calif.). […] The number of attached bacteria was determined by plating serial dilutions on agar plates.

S. aureus [2] = assay: Bacterial growth in vitro (OD600); type: cell-based, Staphylococcus aureus; conditions: 0.1 mg/ml in BHI/G, 37° C., SA113 or USA300 JE2
Description: A stationary culture of S. aureus was diluted to OD600=0.01 in BHI medium and supplemented with 0.2 mg/ml recombinant IAFGP-GST, BSA or PBS as control. Bacterial growth was measured over time at OD600 using a spectrophotometer. Growth curves from 5 independent experiments were pooled±SEM.
A stationary culture of S. aureus SA113 or USA300 JE2 was diluted in BHI/G to OD600=0.01 supplemented with 0.1 mg/ml IAFGP-GST, GST, P1, sP1 or media alone. Following static incubation at 37° C. for 24 h bacterial density was measured at OD600 using a spectrophotometer.

S. aureus [3] = assay: Static biofilm assay (safranin stain); type: cell-based, Staphylococcus aureus; conditions: preliminary data
Description: Biofilm assays were performed as described^38. Briefly, planktonic overnight cultures of S. aureus were diluted in glucose-supplemented tryptic soy broth or brain-heart-infusion broth (1% glucose; TSB/G or BHI/G) to OD600=0.015 and distributed into 96 well plates (Corning, NC). After an 18 h incubation at 37° C. bacterial growth in each well was confirmed by the measurement of OD600 using a spectrophotometer (BioTek, VT). The supernatant was discarded and the wells were washed with water twice. Bacteria associated with the well surface were dried and stained with safranin. The dye was then dissolved in 33% acetid acid and quantified at OD415 nm using a spectrophotometer (BioTek, VT). Bacterial attachment to catheter materials pre-incubated with peptides was investigated. Vialon™ catheters (BD Biosciences, NJ) were incubated for 18 h in 0.1 mg/ml peptides dissolved in PBS, washed with PBS and incubated in bacterial suspensions for 24 h. Following removal of non-adherent bacteria with repeated washing, adherent bacteria and biofilms were dissociated using sonication in PBS. Bacterial titers were quantified by plating serial dilutions on agar plates and were calculated per as CFU per catheter.

polymicrobial sepsis = assay: Cecal ligation and puncture (polymicrobial sepsis) in iafgp-transgenic mice; type: in vivo
Text: Iafgp was constitutively expressed under control of the chicken β-actin promoter in an iafgp-transgenic mouse line. The promoter region was excised from pβAct-CAT 9 (ATCC, VA) using XhoI and HindIII and subcloned into the pEGFP-1 vector (Clontech, CA). EGFP was removed from pβAct-EGFP-1 by digestion with BamHI and NotI resulting in pβAct-1. Iafgp was then PCR-amplified using oligomers iafgp BamHI F and iafgp NotI R, introducing the corresponding restriction sites. The PCR fragment was digested and cloned into linearized pβAct-1, resulting in pβAct-iafgp. For microinjection, the transgene fragment containing the β-actin promoter and iafgp gene was excised from pβAct-iafgp by digestion with XhoI and AflII restriction enzymes and gel purified. Microinjection was performed in […] (C57BL/6×C3H) and mice were genotyped by PCR analysis of tail biopsies using IAFP4qRTF and IAFP4qRTR. mRNA expression of iafgp was confirmed in multiple tissues using the same primers for qRT-PCR. Transgenic iafgp-expressing mice were backcrossed for 8 generations to C57Bl/6 mice (Charles River, Mass.). Heterozygous experimental mice of 6-12 weeks were age- and sex-matched with wild-type littermates and wild-type C57Bl/6 as control. All mice were housed at 20-22° C. with water and food ad libitum. Animal handling was performed according to protocols approved by the Yale animal care and use committee.
as §1, with “incision. Seventy-five percent of the cecum was ligated and punctured through and through with a 21G hypodermic needle.” for “incision.”

Listeria monocytogenes = assay: Needle prick infection of iafgp-expressing fruit flies; type: in vivo, D. melanogaster
Text: (§2) A 0.6 μm tungsten needle was dipped into a 1:10 diluted stationary culture of L. monocytogenes and flies were pricked in the right lateral side of the thorax. Fly survival was monitored visually over the course of infection. Uninfected controls (n.i.; n=40) were pricked with a needle dipped into PBS. Data were pooled from 2 independent experiments (Log-rank test; p<0.005). […] Groups of 20-25 flies were transferred into vials containing only a piece of absorbing tissue. Stationary bacterial cultures, resuspended in 4% sucrose and diluted 2-fold were used to soak the paper, controls received only sucrose solution. Every 3 days the flies were transferred into new vials with freshly soaked tissue, and bacterial survival was measured. […] Uninfected controls (n.i.; n=40) were housed in vials with 4% sucrose. Data were pooled from 2 independent experiments (Log-rank test; p<0.001/p<0.001).

S. aureus SA113 [4] = assay: S. aureus microinjection challenge of iafgp-expressing fruit flies; type: in vivo, D. melanogaster
Description: FIGS. 3A-3E present transgenic expression of iafgp in fruit flies and susceptibility of transgenic flies to S. aureus challenge in vivo. […] Survival data were pooled from 6 independent experiments (Log-rank test; p<0.001). […] Bacterial colonization of individual flies was determined by plating serial dilutions. Data was pooled from 3 independent experiments (One-Way-ANOVA with Tukey's post-test; ***: p<0.001; **: p<0.01; *: p<0.05). FIG. 3C presents PNAG production in iafgp-transgenic and control flies challenged with S. aureus SA113. PNAG levels of pools of 5 flies were assessed at different time points by immunoblot. Average signal intensities of 3 independent experiments±SEM with representative immunoblot images below are shown (Two-Way-ANOVA with Sidak's post test;[…]). FIG. 3D presents PNAG production in iafgp-transgenic and control flies challenged with S. aureus SA113. Paraffin sections of whole flies were stained for bacteria and PNAG. Black triangles point to bacteria, empty triangles indicate PNAG staining. […] Survival data were pooled from 4 independent experiments (Log-rank test; not significant).
Iafgp-expressing and mCherry-expressing flies were generated as described^13. D. melanogaster flies were maintained using standard procedures^39. The fly colony was sustained at 21-23° C. Following infection, flies were incubated at 29° C. to increase UAS-mediated transgene expression. Five to 9 day old females were used for experiments. Twenty to 30 flies per vial were infected by microinjection as reviewed in^40 and survival was monitored. Microinjection was performed into the thorax below the wing using a Nanojet microinjector (Drummond Scientific, PA). Bacteria in stationary growth phase were diluted in PBS to OD600=0.01 or OD600=0.1 and 9.2 nl were injected, corresponding to an infectious dose of 50-100 to 500-1000 CFU per fly respectively. For CFU analysis individual flies were homogenized in […] using a bullet blender (Nextadvance, NY) and steel beads. Serial dilutions were plated on brain-heart-infusion agar plates and incubated at 37° C. overnight. Endogenous fly bacteria only grew to pinprick-size overnight, allowing visual distinction of the fast-growing bacteria used for infection (data not shown). mRNA was isolated from individual flies homogenized in […] using RNAeasy kit (Qiagen, Hilden, Germany). Following DNAse digestion with Turbo DNA-free Kit (Ambion/Life Technologies, NY) RNA was reverse-transcribed with iScript cDNA synthesis kit (BioRad, CA) and gene expression was quantified by qRT-PCR using iQ SYBR Green Supermix (BioRad, CA).

Pseudomonas entomophila = assay: Oral infection of iafgp-expressing fruit flies; type: in vivo, D. melanogaster
Text: as §2

Serratia marcescens = assay: Oral infection of iafgp-expressing fruit flies; type: in vivo, D. melanogaster
Text: as §2

S. aureus SA113 [5] = assay: Bacterial attachment to pre-incubated intravenous catheters in vitro; type: cell-based, Staphylococcus aureus
Description: FIG. 5A depicts bacterial attachment to intravenous catheters that had been incubated in PBS, GST, GST-IAFGP, P2 and P21c before transferring into S. aureus SA113 suspensions. Bacterial attachment was quantified after sonication by plating serial dilutions. Data were pooled from 3 independent experiments (One-Way-ANOVA; *: p<0.05). FIG. 5B presents bacterial attachment to intravenous catheters that had been incubated in PBS, P1 or sP1 and implanted subcutaneously on the dorsal flanks of C57Bl/6 mice. 72 hrs after catheter inoculation with 5×10^5 CFU S. aureus SA113 the catheters were removed and the attached bacteria were quantified by plating serial dilutions. CFU data were pooled from 3 independent experiments (One-Way-ANOVA with Tukey's post-test; **: p<0.01). […] S. aureus are indicated by black triangles, biofilm matrix are indicated by empty triangles.
Biofilm assays were performed as described^38. Briefly, planktonic overnight cultures of S. aureus were diluted in glucose-supplemented tryptic soy broth or brain-heart-infusion broth (1% glucose; TSB/G or BHI/G) to OD600=0.015 and distributed into 96 well plates (Corning, NC). […] The dye was then dissolved in 33% acetid acid and quantified at OD415 nm using a spectrophotometer (BioTek, VT). […] Bacterial titers were quantified by plating serial dilutions on agar plates and were calculated per as CFU per catheter.

S. aureus USA300 JE2 = assay: Intranasal MRSA challenge of iafgp-transgenic mice; type: in vivo; conditions: iafgp-transgenic mice vs controls
Description: Iafgp-expressing mice were infected with USA300 JE2. 1.2×10^8 CFU logarithmic growth phase bacteria per mouse were applied intranasally in 50 μl PBS and murine survival was monitored.

[6] = iafgp-expressing flies vs controls

Molecule: PARKARAATAATAATAATAATAAT [P1]
- toxicity in vivo [1]: no signs of toxicity

Molecule: AAAAATATAAARRAAAAPTTAKTT [sP1, P2 randomized, soluble, negative control]
- bacterial density/viability at OD600 after 24 h static incubation (S. aureus [2]): Neither proteins nor peptides affected bacterial growth

Molecule: PARKARAATPATPATAATPATAAT (listed as Ixodes scapularis) [P0]
- anti-biofilm activity (S. aureus [3]): anti-biofilm activity has been identified

B1: IAFGP: Ixodes scapularis anti-freeze glycoprotein, 251 amino acids, SEQ ID NO: 3; also expressed transgenically in flies and mice (protein, listed as Ixodes scapularis)
chain: MTTLLRLTILIVAVAGVLGSSKRAARAATPATAATPATPATAATPAIAATPATAATPATAATPARKARAATPATPATPATAATPATAATPARKARAATAATPATPATAATPARKARAATPATPATAATPATAATPARKARAATPATPATAATPATAATPARKARAATPATPATAATPATAATPARKARAATPATPATAATAATPARKARAATAATPATPATAATPARKARAATPATAATAATPATAATAAA
- general health and activity (disease score) (polymicrobial sepsis; 24-36 h after surgery, transgenic vs control mice): significantly better general health and activity
- extended (average) survival compared to controls after CLP (polymicrobial sepsis; iafgp-expressing mice): 40% and 35%
- hypothermia and serum cytokine release of MCP-1, TNF-α, IL6 and IL12p40 (polymicrobial sepsis; iafgp-expressing mice vs controls): delayed
- fly survival after L. monocytogenes infection (Listeria monocytogenes): increased fly survival
- pathogen titers in flies over the course of infection (S. aureus SA113 [4]; iafgp-expressing flies): remained stable over the course of infection
- PNAG quantity during S. aureus infection of flies (S. aureus SA113 [4]; [6]): reduced
- fly survival after S. aureus microinjection (S. aureus SA113 [4]; [6]): enhanced survival
- effect of IAFGP on flies challenged with PNAG-deficient S. aureus ΔicaADBC mutant (S. aureus SA113 [4]; ΔicaADBC mutant): completely abrogated
- fly survival after P. entomophila infection (Pseudomonas entomophila): increased fly survival
- fly survival after S. marcescens infection (Serratia marcescens): increased fly survival
- bacterial attachment / biofilm formation on intravenous catheters in vitro (S. aureus SA113 [5]): altered bacterial attachment; also recorded: reduced biofilm formation
- lowering of catheter-associated bacteria in comparison to untreated controls (S. aureus SA113 [5]; catheters incubated in protein or peptide solution, then S. aureus suspension): 9 fold
- survival after intranasal MRSA challenge (S. aureus USA300 JE2): increased survival; also recorded: enhanced survival
